The test system of data set [1] is MS2 coat protein. Briefly: apparent KD of MS2 coat protein, switch OFF state (with FMN for OFF switches, without FMN for ON switches); designed switch direction (-1 OFF switch, 1 ON switch): -1; higher = weaker reporter binding. The note with it: FMN input: 0 or 200 uM; Eterna round: R93 (includes R88 designs). The gist of the method: (§1)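 Normalised binding curves from single clusters were fitted, and the median fit for each design is given as apparent KD. The clusters held designed RNA switches transcribed on-chip from Illumina sequencing clusters. These were titrated with SNAP-549-labelled MS2 coat protein (twofold steps from 0.7 or 1.5 nM to 3 µM, 0.8–1.5 h to 10–20 min per step) in 100 mM Tris-HCl pH 7.5, 80 mM KCl, 4 mM MgCl2, without or with constant ligand.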

In data set [2] the test system is MS2 coat protein. As to the kind of experiment: apparent KD of MS2 coat protein, switch ON state; designed switch direction (-1 OFF switch, 1 ON switch): -1; higher = weaker reporter binding. To be noted: FMN input: 0 or 200 uM; Eterna round: R93 (includes R88 designs). The gist of the method: as §1

As to “AAAAAUGGAGGAUAUACAUGAGGAUCACCCAUGUGUAACUAUACAAAACACAAAAAAAGUAGAAGGCCAAAAAA [Gilly Gone Silly 7 - Jieux - Exclusion 3]”, the “apparent KD of MS2 coat protein” value in data set [1] was found to be 19.3 nM; in data set [2], 20.1 nM.
For the sequence “AAAAAUGGAGGAUAUACAUGAGGAUCACCCAUGUGUAACUAUACUAAGCGCUCCUCACGUAGAAGGCCAAAAAA [Gilly Gone Silly 14 - Jieux - Exclusion 3]”, the “apparent KD of MS2 coat protein” value in data set [1] was found to be 31.4 nM; in data set [2] it was 74.1 nM.
On to “AAAAAUUGAGGAUAUACAUGAGGAUCACCCAUGUUAGACCUAAAAAAAGGGAAAGAAAGUAGAAGGCAAUAAAA [Ex 3 May 28]”, for which the “apparent KD of MS2 coat protein” value in data set [1] came to 18.8 nM; in data set [2] it was 14.6 nM.
For the sequence “AAAACGGUAGGAUAUACAGUCCGUUGUCGAAUGAUGAAAAGACAUGAGGAUCACCCAUGUAGAAGGACCGAAAA [Bienor]”, the “apparent KD of MS2 coat protein” value in data set [1] amounted to 138 nM; in data set [2], 36.5 nM.
“AAAACGGUAGGAUAUACAUGAGGAUCACCCAUGUUAAAUUUAAAAAUAAAAUUAAAAUGUAGAAGGACCAAAAA [Mai Tai1]”: the “apparent KD of MS2 coat protein” value in data set [1] is 35 nM; in data set [2], 31.5 nM.
In the same order, the values of “AAAACGGUAGGAUAUACGAUUGGGAACUAGACCGAGGAACCACAUGAGGAUCACCCAUGUAGAAGGGCCAAAAA [Ex2 Malc#14]” are 16.7 nM and 16.9 nM.
Regarding “AAAACGUGAGGAUAUGCACCAAAAAAGGAAAAACGGGUACGACAUGAGGAUCACCCAUGUAGAAGGCACGAAAA [Frodo Flailing 9 - Jieux - Exclusion 2]”, the “apparent KD of MS2 coat protein” value in data set [1] amounted to 39 nM; in data set [2] it was 40.8 nM.
With “AAAAGAAAAGGAUAUAAAAAGAAAAGUCAGGAUAUAGGAAACUAGAAGGGACAUGAGGAUCACCCAUGUAAAAG [Meechl Ex4 R2 m2]”, the “apparent KD of MS2 coat protein” value is 71.9 nM in data set [1] and 35.9 nM in data set [2].
As to “AAAAGACAUGAGGAUCACCCAUGUCAGGAUAUGACUUGAAAAAAAAAAAAAAAACAUGUCAGAAGGGACAUGAA [Design 45: Sub-opt D]”, the entries for the “apparent KD of MS2 coat protein” value in data set [1] and in data set [2] were 19.6 nM and 20.6 nM, respectively.
The like results for “AAAAGACAUGAGGAUCACCCAUGUGAGGAUAUGACGUAAAUAAAGAAAGAAGAAAUCGUCAGAAGGCACACCUA [55%, Disencluded 2, 1]” were, in that order, 63.4 nM and 29.5 nM.
In the same order, the values of “AAAAGGAAAGGAUAUGCAGACUGGGUCACCCAGAUGUAUGAACAUGAGGAUCACCCAUGUAGAAGGUUCAAAAG [Ribiquon]” are 26.5 nM and 36.6 nM.
In the case of “AAAAGUACAGGAUAUACAUGAGGAUCACCCAUGUGAAAAUUAAGUGGCGUACAACAAAGUAGAAGGGUACUGGA [Ruby 52]”, the “apparent KD of MS2 coat protein” value in data set [1] was 44.6 nM; in data set [2], 20.7 nM.
With “AAAAGUUGAGGAUAUACAAAAUGAUUGCGAAAUCAAUUAAAACAUGAGGAUCACCCAUGUAGAAGGCGAUAAAA [Banishment 4 - Jieux - Exclusion 2]”, the “apparent KD of MS2 coat protein” value in data set [1] is 21.6 nM; in data set [2], 27 nM.
The like results for “AAAAUACAUGAGGAUCACCCAUGUGAGGAUAUGCUAUGGAAAUAAAAAAUAAAACAUAGCAGAAGGUACAAAAA [Mat - Exclusion 1 - Eli mod - D42]” were, in that order, 33.7 nM and 20.9 nM.
For “AAAAUGUCAGGAUAUCUGGAUAGGAAAAAGAAAACCUAUCCAGAGAAGGGACAUGAGGAUCACCCAUGUAAAAA [JL cataway mod 3]”, the “apparent KD of MS2 coat protein” value in data set [1] came out at 171 nM; in data set [2], 92.9 nM.
The like results for “AAAAUGUCAGGAUAUGUAGCAUGAUACGAAAGUAUCAUGCUACAGAAGGGACAUGAGGAUCACCCAUGUGAUCA [Ex4: 939]” were, in that order, 45 nM and 59.7 nM.
The like results for “AAACCACAUGAGGAUCACCCAUGUUAGGAUAUGCUAUGGAAAAUAAAAAUAAAACAUAGCAGAAGGGACAAAAA [Denovo 7]” were, in that order, 18.7 nM and 19.3 nM.
The like results for “AAAGAGUGAGGAUAUUCGGAUAGGAAAACGAAAACCUAUCCGAAGAAGGCACAUGAGGAUCACCCAUGUAAAAA [67% Ecls-II - Early G segment 2]” were, in that order, 39.5 nM and 37.3 nM.
For the sequence “AAAGAUACAGGAUAUACAUGAGGAUCACCCAUGUGGAAUCAAAAAUGGGAAAAAGAAAGUAGAAGGGUAUAAAA [Ex 3 May 38]”, the entries for the “apparent KD of MS2 coat protein” value in data set [1] and in data set [2] were 87.3 nM and 30.6 nM, respectively.
The like results for “AAAGAUGCAGGAUAUACAUGAGGAUCACCCAUGUUAGACCAGAAAUGGGAAAAAGAAAGUAGAAGGGCAUAAAA [Ex 3 May 33]” were, in that order, 119 nM and 18.2 nM.
Turning to “AAAGGACGAGGAUAUACAUGAGGAUCACCCAUGUAAAAAACAUAAUAAAAGAACUUGUGUAGAAGGCGUCCAAA [Meechl Ex3 2 R2 v6]”, the “apparent KD of MS2 coat protein” value is 335 nM in data set [1] and 93 nM in data set [2].
In the same order, the values of “AAAGGACGAGGAUAUACAUGAGGAUCACCCAUGUAAAAAGCGUAAUAAAAGAACUUAUGUAGAAGGCGUCCAAA [Meechl Ex3 2 R2 v1]” are 66.8 nM and 45 nM.
In the same order, the values of “AAAGGUGCAGGAUAUGCGUGGAAAAAGUGUAUUCAAAAAAAACAUGAGGAUCACCCAUGUAGAAGGGUACCAAA [MS2 Riboswitches On Chip Exclusion 2 wbt2]” are 165 nM and 55.7 nM.
As to “AAAUAACAUGAGGAUCACCCAUGUUAGGAUAUCUAAAUGGUGUAAACACCAGAAGAUGAGAGAAGGGACGUGGA [Enlalees]”, the results for the “apparent KD of MS2 coat protein” value in data set [1] and in data set [2] were 25.1 nM and 17.9 nM, respectively.
In the same order, the values of “AAAUAGCAAGGAUAUACAUGAGGAUCACCCAUGUGAAAAAGAUAUGGAAUAGAAUAGAGUAGAAGGUGCAAAUA [Ex 3 Tesla 8]” are 54.1 nM and 40.4 nM.
The like results for “AAAUAGUUAGGAUAUACAUGAGGAUCACCCAUGUGCACUUAUGGAGAAUAGUGUAAUGGUAGAAGGGACUAAAA [EX2 Malc#23]” were, in that order, 94.6 nM and 82.1 nM.
The like results for “AAAUAGUUAGGAUAUACAUGAGGAUCACCCAUGUGGACUUAUGGAGAAUAAUUUAGUGGUAGAAGGGACUAAAA [EX2 Malc#27]” were, in that order, 44.6 nM and 46.4 nM.
“AAAUGCUGAGGAUAUACAUGAGGAUCACCCAUGUAAAAUAAAUAAUGAGUGUAAACGUGUAGAAGGCAGCAUAA [Exclusion 3.14c (FMN+ favored )]”: the “apparent KD of MS2 coat protein” value in data set [1] was 19.5 nM; in data set [2] it was 41.1 nM.
The like results for “AAAUUGUCAGGAUAUGUACGAACAACAAAACAAAUAACGGUACAGAAGGGACAUGAGGAUCACCCAUGUAUAAA [May 72]” were, in that order, 73.2 nM and 65.8 nM.
In the same order, the values of “AACAAGACAGGAUAUACAUGAGGAUCACCCAUGUGAGAAUUAAGUGGCGUACCACAAGGUAGAAGGGUCAUGGA [Ruby 3]” are 57.6 nM and 34.2 nM.
In the same order, the values of “AACAGACAUGAGGAUCACCCAUGUAAGGAUAUCCCAAACGAUAAAACAAGAAUGACAAGGAGAAGGUGCAGCAA [JR_Exc001_Sub006]” are 50.8 nM and 62.8 nM.
As for “AACAGGUGAGGAUAUCGAACAACAACAACAACAACAACAAACGAGAAGGCACAUGAGGAUCACCCAUGUAAGAA [Exclusion 4C]”, the results for the “apparent KD of MS2 coat protein” value in data set [1] and in data set [2] were 16.6 nM and 19.6 nM, respectively.
The like results for “AACAGUACAGGAUAUACAUGAGGAUCACCCAUGUAAAGGGAAAGUGGCGUACCACAAAGUAGAAGGGUACUGGA [Moding Maslow revisited (73) 5]” were, in that order, 175 nM and 40.1 nM.
On to “AACAGUACAGGAUAUACAUGAGGAUCACCCAUGUAGAGAGAAUAAAACAAAAAUAAAUGUAGAAGGGUACUGAA [Mat - Exclusion 3 - Eli mod - D68]”, for which the “apparent KD of MS2 coat protein” value in data set [1] was determined as 25.5 nM; in data set [2], 24.5 nM.
In the same order, the values of “AACAGUACAGGAUAUACAUGAGGAUCACCCAUGUGAAAAUUAAGUGGCGAACCACAAUGUAGAAGGGUACUGGA [Mat - Exclusion 3 - Eli mod - D47]” are 25.9 nM and 81.9 nM.
“AACAGUACAGGAUAUACAUGAGGAUCACCCAUGUGAAAAUUAAGUGGCGUACCACAGUGUAGAAGGGUACUGGA [Moding Maslow Revisited (73) 25]”: the “apparent KD of MS2 coat protein” value in data set [1] came to 62.7 nM; in data set [2], 87.9 nM.
With “AACAGUACAGGAUAUACAUGAGGAUCACCCAUGUGAGAAACCAGUGGCGUACCACAAAGUAGAAGGGUACUGGA [Moding Maslow Revisited (73) 28]”, the “apparent KD of MS2 coat protein” value turned out to be 185 nM in data set [1] and 42.4 nM in data set [2].
The like results for “AACAGUACAGGAUAUACAUGAGGAUCACCCAUGUGGGUAAAAAGAUCGAGAGAUCCAUGUAGAAGGGUACUGGA [JL In the Red 05]” were, in that order, 37.9 nM and 36.7 nM.
The like results for “AACAUGUUAGGAUAUUCAAGAAAAGAAAAGAAAGAAAAGAAGAAGAAGGAACAUGAGGAUCACCCAUGUAAGAA [EteRNA is fun!]” were, in that order, 27.1 nM and 33.3 nM.
In the same order, the values of “AACCCGCUAGGAUAUACAGCAGGGAUUCGAAAACCCACGAAACAUGAGGAUCACCCAUGUAGAAGGAGUAGGGA [Bereatenat]” are 21.1 nM and 22.7 nM.

Values taken from the supplement of paper PMC9170038.
